From PMC6380599 (PLoS Pathogens, 2019)

Biological target: T1, histidine tagged SFTSV Gn-Cκ (Gn ectodomain, strain Gangwon/Korea/2012) (SFTSV (Dabie bandavirus) strain …, UniProt U3GR55, strain)
T1 construct: source: HEK 293F or Expi293F, transfected, purified
Assay: SPR; Biacore T200, […]; dissociation 5 min in PBS with 0.005% Tween20
Conditions: both partners purified

B1: Ab10 IgG1 antibody (antibody, V domains shown)
VH: EVQLVESGGGVVQPGRSLRLSCAASGFTFSGYGIHWVRQAPGKGLEWVALISYDGSNKYYADSVKGRFTISRDNSKNTLYLQMNSLRAEDTAVYYCAKDRDYFGSGFFDYWGQGTLVTVSS
VL: ELVMTQSPSSLSASVGDTVTITCRASQSIYTYLNWYHQTPGKAPKLLISAASSLQSGVPSRFSGSGSGTDFTLTISSLQPEDFATYYCQQYADVPVTFGGGTKLEIK
notes: also called Ab10 mAb; human IgG1 monoclonal antibody Ab10; source: HEK 293F, transfected, purified from culture supernatant (MabSelect)
Kd: 0.104 nM
koff: 7.7e-05 s⁻¹
kon: 740000 M⁻¹ s⁻¹
